Common to all, as to test: EMSA; EMSA: 20 mM Tris-HCl pH 7.5, 50 mM NaCl, 10 mM DTT, 1 mM EDTA, 5% glycerol, 200 ng dI/dC, 200 ng each protein in 20 ul, 4 C, 30 min; 8% PAGE, 1x TBE, 4 C
The target in data set [1] is T1, Pou4f2 (Brn3b) (mouse, UniProt Q63934 1-411).
T1 sequence: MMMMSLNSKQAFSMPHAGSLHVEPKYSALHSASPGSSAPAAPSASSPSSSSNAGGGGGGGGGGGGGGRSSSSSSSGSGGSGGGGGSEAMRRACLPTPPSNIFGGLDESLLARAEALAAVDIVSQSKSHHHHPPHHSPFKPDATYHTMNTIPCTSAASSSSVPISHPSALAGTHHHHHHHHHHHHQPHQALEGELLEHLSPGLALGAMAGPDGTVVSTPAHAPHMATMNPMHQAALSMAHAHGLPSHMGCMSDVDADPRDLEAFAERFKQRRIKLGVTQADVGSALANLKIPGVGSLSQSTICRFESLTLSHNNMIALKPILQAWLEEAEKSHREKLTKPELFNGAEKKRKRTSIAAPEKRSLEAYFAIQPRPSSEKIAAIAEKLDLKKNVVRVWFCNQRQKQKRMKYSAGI
Conditions: protein: recombinant; tags: His (C-terminal, pET-28a); (radiolabel, Klenow fill-in); 5' overhang 1 nt at both ends before fill-in.

Data set [2] has as its target T2, Pou4f2D2 (mouse, UniProt Q63934 1-330).
T2 sequence: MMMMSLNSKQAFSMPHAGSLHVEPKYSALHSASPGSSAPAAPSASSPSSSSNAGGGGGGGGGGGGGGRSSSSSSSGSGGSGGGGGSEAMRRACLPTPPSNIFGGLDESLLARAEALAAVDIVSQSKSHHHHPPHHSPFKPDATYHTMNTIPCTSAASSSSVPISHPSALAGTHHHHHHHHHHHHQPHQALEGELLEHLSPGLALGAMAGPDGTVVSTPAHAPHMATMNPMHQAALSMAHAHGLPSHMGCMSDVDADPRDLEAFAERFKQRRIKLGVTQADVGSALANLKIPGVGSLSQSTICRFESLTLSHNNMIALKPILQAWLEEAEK
Conditions: protein: recombinant; tags: His (C-terminal); (radiolabel, Klenow fill-in); 5' overhang 1 nt at both ends before fill-in.

For data set [3], the target named is T3, Pou4f2D4 (mouse, UniProt Q63934 169-411).
T3 sequence: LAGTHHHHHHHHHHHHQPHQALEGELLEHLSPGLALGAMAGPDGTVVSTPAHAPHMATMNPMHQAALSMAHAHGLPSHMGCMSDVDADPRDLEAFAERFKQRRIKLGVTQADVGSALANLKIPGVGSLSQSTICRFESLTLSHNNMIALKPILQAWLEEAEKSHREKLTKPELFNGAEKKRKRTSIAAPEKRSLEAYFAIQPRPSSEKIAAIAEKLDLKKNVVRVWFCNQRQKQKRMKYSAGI
Conditions: protein: recombinant; tags: His (C-terminal); (radiolabel, Klenow fill-in); 5' overhang 1 nt at both ends before fill-in.

In data set [4] the target is T4, Pou4f2D1 (mouse, UniProt Q63934 1-260).
T4 sequence: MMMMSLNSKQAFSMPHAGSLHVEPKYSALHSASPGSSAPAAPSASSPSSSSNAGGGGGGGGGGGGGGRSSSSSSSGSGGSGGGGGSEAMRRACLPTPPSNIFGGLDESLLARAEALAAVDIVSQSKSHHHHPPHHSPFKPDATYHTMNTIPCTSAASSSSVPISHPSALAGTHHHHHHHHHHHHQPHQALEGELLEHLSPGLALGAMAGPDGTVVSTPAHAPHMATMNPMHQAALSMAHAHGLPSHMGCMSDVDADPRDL
Conditions: protein: recombinant; tags: His (C-terminal); (radiolabel, Klenow fill-in); 5' overhang 1 nt at both ends before fill-in.

Data set [5] addresses T5, Isl1D5 (mouse, UniProt P61372 74-349).
T5 sequence: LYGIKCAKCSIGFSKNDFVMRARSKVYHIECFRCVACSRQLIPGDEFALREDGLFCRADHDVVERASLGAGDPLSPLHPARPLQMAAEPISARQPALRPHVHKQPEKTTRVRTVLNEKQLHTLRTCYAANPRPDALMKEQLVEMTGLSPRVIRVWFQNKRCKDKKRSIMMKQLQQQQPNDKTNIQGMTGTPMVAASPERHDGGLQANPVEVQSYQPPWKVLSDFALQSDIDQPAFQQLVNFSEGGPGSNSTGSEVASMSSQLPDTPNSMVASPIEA
The conditions noted are these: protein: recombinant; tags: His (C-terminal); (radiolabel, Klenow fill-in); 5' overhang 1 nt at both ends before fill-in.

Data set [6] deals with T6, Pou4f2D3 (mouse, UniProt Q63934 240-411).
T6 sequence: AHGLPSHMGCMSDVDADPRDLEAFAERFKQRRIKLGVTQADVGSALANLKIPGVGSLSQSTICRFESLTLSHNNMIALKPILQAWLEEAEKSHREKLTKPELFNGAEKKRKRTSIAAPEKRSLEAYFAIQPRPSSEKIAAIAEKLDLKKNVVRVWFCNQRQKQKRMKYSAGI
The conditions noted are these: protein: recombinant; tags: His (C-terminal); (radiolabel, Klenow fill-in); 5' overhang 1 nt at both ends before fill-in.

B1: CBRN3(W) (dsDNA)
DNA 1: GATCTCTCCTGCATAATTAATTACCCCCGGAT
DNA 2: GATCCGGGGGTAATTAATTATGCAGGAGAGAT
As to B1, the binding result is given as “binds” in data set [1]; “no binding” in data set [2]; “binds” in data set [3]; “no binding” in data set [4]; “binds” in data set [5]; “binds” in data set [6].

B2: SBRN3(W) (dsDNA)
DNA 1: GCACACGACCCAATGAATTAATAACCGGGCTG
DNA 2: GCAGCCCGGTTATTAATTCATTGGGTCGTGTG
In the case of B2, the binding result is given as “binds” in data set [1]; “no binding” in data set [2]; “binds” in data set [3]; “no binding” in data set [4]; “binds” in data set [5]; “binds” in data set [6].

Values taken from PMC3958441, “Isl1 and Pou4f2 Form a Complex to Regulate Target Genes in Developing Retinal Ganglion Cells” (PLoS ONE, 2014).
